Assay results from paper PMC11575642 (Chemical Science, 2024).

Target: Glutathione peroxidase 4 (GPX4), endogenous in OS-RC-2 cells (Homo sapiens, OS-RC-2 cells, UniProt P36969)
Test: pull-down

B1: 4C-R10 (nanobody 4C fused at its C-terminus through an SGSGSG linker to the arginine-rich R10 cell-penetrating peptide) (VHH)
VHH: EVQLEESGGGSVQAGGSLRLSCAAPGDTSSRYYMGWFRQAPGKEREGVAGFSTGLGRTTYADSVKGRFTISQDNAKNTIYLQMNSLKVEDTAMYYCATGRAWAAGSPMYGPFDSRRYNYWGQGTQVTVSS
- binding result: binds
